Test results from the DeepSol protein solubility set.

test: soluble on expression in E. coli; label from the status in PepcDB or PDB records

| Sequence | soluble on expression in E. coli |
| --- | --- |
| MAHHHHHHMAAMLRLTFALRLSSKQLSHGPLATHTRKQSFRQSKTALQVSRLRSQTQRANFNLQQELNRDFGARQYAFAQGRRSMQRAAEDLMYDRAYRAERHRGRAGEVYRTTKDRAAEVATARQLLQMQESTRRLMKKGRTQRVEAFRAQKQWNR | not soluble |
| MAHHHHHHMFHGFPQVQVVSDDAPTGESIFAKDSDSHVELPPAKKVRISFPALTHLGSFSQDATCHSAVGGRLCGVQQGDTILITSVLPSLGASGDAEDERDDTAESKQQQKMYEKVKEMLRKECLDSYSVGYFIVSSACVNDPYSVVTADRLANLAIDGHPSVLLVYDPFRTGLMGKLYLRAFVPTDAFLDFSRKNKKTKKTDKKSGMQEEARLLRACSVPKQGVLREVKVEVEVDAYQLFCLNGIDIAPLPSNSTVHHSDSMADYKVALLESVQRNLSDLEGKLSRETSRNQRDENNVPPARGVDTMLALVQLREQAQHLEALCDGTLLISSLLRDL | not soluble |
| MTKQLVLFCDFDGTITENDNIIAIMKQFAPPEWEALKDDILAERISVQEGVGKMFSLLPSSLKGEIIDFLRRTTRLRAGFREFVAFTKERGIPLYIVSGGIDFFVYPLLEGLIEPERIFCNGSDFSGETIRITWPHACDGECQNGCGCCKPSLLRKLARPDGYHVVIGDSITDLAVAKQADYVMARDFLLQKCQELGLPHAPFATFFDVIDALQRMEVIV | soluble |
| MFKAIVSAATLRDALDSVSVLVDECKIRLNEESLSIRAVDPANVGMVDLTLDAAAFESYEAHGGVIGVNLSRLEEVAGMAGAGDLIHLTLDEETRKLNIRIDGLSYTLALIDPDSIRQEPDIPDLDLAANIVLEGTHLDRGIKAADMVSDHIRLRVDGAEETFHIEAEGDTDDVDLSLPPADLISIEAGAADSLFSLDYLKDMNKAIPTDAEVTVELGEEFPVKLHYQIAEGMGTITYMLAPRIQSD | soluble |
| MGSDKIHHHHHHMRNPEVIVIGSGIGGLCCGGLLAKAGKRVLILEAHSKPGGAAHGFEKNGYKFESGPSLWSGIGSWPTTNPLGQVLKALNQKVDLIKYQDWNVQIPEGDYTIGVGDRRFLDQINSISGKDAMKEWENFIQVIKPIGAAANAIPLLALNQNKETVLQLLKRSKTLLTHLKSFKYLGGAFGNLVDDHLKDPFLRNWVELLCFLISGLSKDETNAAAMATLFDDWFNPDAYLEYPKGGSESIVKALLDGIYSFGGDLQLNSKVSQIIIKRNKAIGIELKNGERIFADHIVSNADIWNTIELIPKEISQKWRGKRSKTPKCKSFLHLHLGFNAEGLKDIPLHSIWVNDWSKGITAERNVVVLSIPSALDPTMSPPNKHILHGYTPANEPWERWEGLKIGSKEYERTKEERCSVFWEPIKKLVPDIEERIEVKMLGTPLTHQRFLNTKNGSYGPALSAAEGLFPGNKTPIKNLLLCGSSTFPGIGIPPVAASGAMAANTILGSKFQRDLIEELGL | not soluble |
| ANNLPDTQSSGPAHSKETPALTAVETGATNPLVPSDTVQTRHVIQKRTRSESTVESFFARGACVAIIEVDNDAPTKRASKLFSVWKITYKDTVQLRRKLEFFTYSRFDMEFTFVVTSNYTDANNGHALNQVYQIMYIPPGAPIPGKWNDYTWQTSSNPSVFYTYGAPPARISVPYVGIANAYSHFYDGFAKVPLAGQASTEGDSLYGAASLNDFGSLAVRVVNDHNPTKLTSKIRVYMKPKHVRVWCPRPPRAVPYYGPGVDYKDGLAPLPGKGLTTY | soluble |
| MSLTSDKIFFHHLDNLRPSLTPVKELKEPVGQIVCTDKGILAVEQNKVLIPPAWNKTFAWGYADLSCRLGTYESDKAVTVYECLSEWGQILCAVCPNPKLVITGGTSTVVCVWEMGTSKEKAKPLTLKQALLGHTDTVTCATASLAYHIIVSGSRDRTCIIWDLNKLSFLTQLRGHRAPVSALCINELTGDIVSCAGTYIHVWSINGNPIVSVNTFTGRSQQIVCCCMSEMNEWDTQNVIVTGHSDGVVRFWRMEFLQVPETPAPEPVEDLEMQEGCPEAQIGQQAQDDDSSDSETEEPSVSQDPKDTSSQPSSTSHRPRAASCRATATWCTDSGSDDSRRWSDQLSLDEKDGFIFVNYSEGQTRAHLQGPLAHPHPNPIEARSYSRLKPGYRWERQLVFRSKLTMHTAFDRKDNTHPAEVTALGVSKDHSRILVGDSRGRVFSWSVSDQPGRSAADHWVKDEGGDSCSGCSVRFSLTERRHHCRNCGQLFCQKCSRFQSEIKRLKISSPVRVCQNCYYSLQHERGAEDGPRNCEGHHHHHH | not soluble |
| MGSDKIHHHHHHMKSNLFMKRKLEIGLSLLIGTSVFGGCNNDLAPIRQSQTFPPNLNAPTVFESFSPDSGGVKTQLIIRGQNFGTDTAYLKVTVNNKRAAIVGVADDVIYAIVPARADTGYVRLFVGKDDNVEEYASQTKFIYQFKRNVTTLMGRQGQSGRDDGPYAECKLQRPWFALADKDGALFFIDEGRGQNKNGALRRAQEGWVETLVQNSSGPFQSPTCLAFNPKQDTLYISNMSYGSDIKTSFNILYVTREGGFMDVKGLCKFEKAETQGLAVHPQTGEIFFCNKSGGYIYRFNGPDYEDYEPLFQINRADKIDTRMVFNPEGTALFVVVCNRHCIYKVPYNALTHTFGEPELFAGGWDESGYVNGSGVTARFDNPRQPAFDQDGNMFVPEYGRHTIRKITPTGEVSLYAGLPGQAGFTDGLPEKARFNKPECVTVYLDNSLYVADRDNHLIRRVTVE | not soluble |
| MVTITLYMNNNIEYISKIKKGEETSFRHFVNSYSKDLFYYAQCFVRSKETAEEVVSDVFLDVWRHREEIDEIKNIKAWLLTLTHNKAISYLRKAENSSEIASWEEIDDFQIIGNLQTPDEEMISKEEIAQINSLIQTLPPKCKVVFALAKIERLPYKEIADMLNISVKTINVHVAKALEIISNGLKK | not soluble |
| MSLEGYTVIIKTGNEDLDRRLTGLPFPALIMIEGDHGTGKSVLAAQICYGLLISDKKGYVITTEQTTKDYLVKMRDVKINLIPFFIKGSLGVAPLNTNKFNWNSDLANKILDLIIDFVKKRKNIEFLIIDSLSVLATFAEERQILQFMKESRVLVDLGKLILFTIHPDVFSEEIKSRITSIVDVYFKLSAVTIGGRRIKVLERVKTVGGIQGSDTISFDIDPALGIKVIPLSLSRAEGHHHHHH | soluble |
| MCGIFAYLNFLTPKKRSEIVDILVQGLQRMEYRGYDSAGIAIDGSNEIESPHSSVALLRKAGKVSVLSDFIKESSSDLDMDMEYNIHCGIAHTRWATHGSPRDVNSHPHRSNDKNEFLVVHNGIITNYREIKEYLEKKGHKFESETDTEVIAKLAQHIHDRYPDFSFRQLVETVIQQLEGAFALAFKSSRFPGQLVASRRGSPLLVGIKSNSRLQTNHFPVSFSKDAGWKWGDEKQTDGRRFMSNHATHLRDETSFVETPNNILDLSIAVRSSNGSAKMEISDSTTAVRPFDSDDWEVEYFVASDAAAIIEHTKQVLFLEDDDVAFVEDGALTIHRISRHADNGEQKREVKLLEMELQEIMKGSFKTYMQKEIFEQPDSVVNTMRGRVLPSGQVVLGGIKEYLPDIKRCRRLIMVACGTSYHSAIACRQILEELSELPVVVELASDFLDRETPIFRDDVCLFISQSGETADTLLALRYCKPRGALTIGVTNTVGSSICRESHCGIHINAGPEIGVASTKAYTSQILSLLMFALTLSDDRISMAKRREEIIDALNDLPELIREVLQLDEKVLDIAKQIYKEKSLLIMGRGLNFATCLEGALKIKELSYMHCEGIMSGELKHGPLAMVDEFLSICMVVCNDRVYKKSLNALQQVVARKGAPIIIADCTVPEGDLAGMKHILRVPKTVDCVQNILTVIPLQLLSYHIAELNGANVDRPRNLAKSVTVE | not soluble |
| MNVTLLVADAVWSNIESTGSVTEEQLSILQLLFGKNLEKATRIIDKRGVKKISGLPSGRSIFQVVGESQKREEYLCFPGDYCGCYSFFYDVVSRGEHQCCKHQLAARLASSLGTYNEIEVSDDHLALMLSKI | not soluble |
| MSIRIIPQDELGSSEKRTADMIPPLLFPRLKNLYNRRAERLRELAENNPLGDYLRFAALIAHAQKVVLYDHPLEMDLTARIKEASAQGKPPLDIHVLPRDKHWQKLLMALIAELKPEMSGPALAVIENLEKASTQELEDMASALFASDFSSVSSDKAPFIWAALSLYWAQMANLIPGKARAEYGEQRQYCPVCGSMPVSSMVQIGTTQGLRYLHCNLCETEWHVVRVKCSNCEQSGKLHYWSLDDEQAAIKAESCDDCGTYLKILYQEKEPKVEAVADDLASLVLDARMEQEGYARSSINPFLFPGEGE | not soluble |
| MGHHHHHHSHMRKLTALFVASTLAMGAANLAHAAETTTAAPADAKPMMQHKGKFGPHHDMMFKNLNLTDAQKQQIRDIMKAQREQMKRPLLEERRAMHDIIASDTFDKAKAEAQITKMEAQRKANMLAHMETQNKIYNVLTPEQKKQYNANFEKRLTERPAQEGKMPAAAE | soluble |
| MSLNLREFKEFIDNEMIVILGQMDSPTQIFEHVFLGSEWNASNLEDLQNRGVRYILNVTREIDNFFPGVFEYHNIRVYDEEATDLLAYWNDTYKFISKAKKHGSKCLVHCKMGVSRSASTVIAYAMKEYGWNLDRAYDYVKERRTVTKPNPSFMRQLEEYQGILLASKEGHHHHHH | not soluble |
| MNNSNRIIPFAFKSSEHGSYEDEMMEMEDVVDVEDYMGGEKYDSYNDAKEDIKDFKTTQRMKKIHRMEKIEQNIASEKIDIIELGTRVMVSTSDKTLNEASLERTIRCGISEATFLGDISMESLVEGMVNPSAADGRFAMLGTSIMLNALKSNIKDLRGTIVGQTTNTNSESKFDKIDLSLMNLSHCQQTSYNIRATGVFSNADLQYVFSLLTFRRNAKLLNKTKQFIKAYFCVACRPRCMIWRYTLRRAGNSQRRAILNLPSAIVSTITQFLLDLTGISDANIPYDQLDPMTPLSISLGEDESMRVQRYEEACRLKDPLTRFFRDAITDCLNELREMPFCLNTGILLSPLRGREQGTSCVTWKDYEGFLKREHDLPSEANMKKRTQFEQRLCDIIPRVRRPVPN | not soluble |
| MAKETVCVTGANGFIGSWIIRTLIEKGYTKIHASIYPGSDPTHLLQLPGSDSKIKIFEADLLDSDAISRAIDGCAGVFHVASPCTLDPPVDPEKELVEPAVKGTINVLEAAKRFNVRRVVITSSISALVPNPNWPEKVPVDESSWSDLDFCKSRQKWYPISKTLAEKAAWEFSEKHGTNIVTIHPSTCLGPLLQPNLNASCAVLLQLLQGSTETQEHHWLGVVHVKDVAKGHVMLFETPDASGRFLCTNGIYQFSEFAALVSKLFPEFAVHKFDKETQPGLTSCNDAAKRLIELGLVFTAVEDAVKETVQSLRDKGFL | soluble |
| SLGWFKTCSKQEDNDVCVVQNVVLAQNGQMITAVGLITVEGKVNRKLLQVSVPTARLIPPGVMMQIDGGKGQKLDYAVCLPDKCTAEVPLTDAMIASLKKGSEVVFTSINFRRAPNPIKIALSGFTGAYDGAAITQSQLAE | not soluble |
| MTAIAPVITIDGPSGAGKGTLCKAMAEALQWHLLDSGAIYRVLALAALHHHVDVASEDALVPLASHLDVRFVSTNGNLEVILEGEDVSGEIRTQEVANAASQVAAFPRVREALLRRQRAFRELPGLIADGRDMGTVVFPDAPVKIFLDASSEERAHRRMLQLQEKGFSVNFERLLAEIKERDDRDRNRAVAPLVPAADALVLDSTTLSIEQVIEKALQYARQKLALA | soluble |
